Reference: patent US20210388087A1 (Chugai, published 2021)
Where a chain is given by its changes, count along the chain named. Names and notes keep the numbering of the source.

B1: CE115HA000 N31R one-arm antibody (antibody, human IgG1, kappa, L234A L235A, N297A, name in Kabat numbering)
heavy: QVQLVESGGGVVQPGRSLRLSCAASGFTFSRAWMHWVRQAPGKGLEWVAQIKAKSNNYATYYAESVKGRFTISRDDSKNSLYLQMNSLKTEDTAVYYCRYVHYGAYYGVDAWGQGTTVTVSSASTKGPSVFPLAPSSKSTSGGTAALGCLVKDYFPEPVTVSWNSGALTSGVHTFPAVLQSSGLYSLSSVVTVPSSSLGTQTYICNVNHKPSNTKVDKKVEPKSCDKTHTCPPCPAPEAAGGPSVFLFPPKPKDTLMISRTPEVTCVVVDVSHEDPEVKFNWYVDGVEVHNAKTKPREEQYASTYRVVSVLTVLHQDWLNGKEYKCKVSNKALPAPIEKTISKAKGQPREPQVYTLPPSRCELTKNQVSLSCAVKGFYPSDIAVEWESNGQPENNYKTTPPVLDSDGSFFLVSKLTVDKSRWQQGNVFSCSVMHEALHNHYTQKSLSLSPDYKDDDDK
chain: EPKSSDKTHTCPPCPAPELLGGPSVFLFPPKPKDTLMISRTPEVTCVVVDVSHEDPEVKFNWYVDGVEVHNAKTKPREEQYNSTYRVVSVLTVLHQDWLNGKEYKCKVSNKALPAPIEKTISKAKGQPREPQVCTLPPSRDELTKNQVSLWCLVKGFYPSDIAVEWESNGQPENNYKTTPPVLDSDGSFFLYSKLTVDKSRWQQGNVFSCSVMHEALHNRYTQKSLSLSP
light: DIVMTQSPLSLPVTPGEPASISCRSSQSLVHSNRNTYLHWYQQKPGQAPRLLIYKVSNRFSGVPDRFSGSGSGTDFTLKISRVEAEDVGVYYCGQGTQVPYTFGQGTKLEIKRTVAAPSVFIFPPSDEQLKSGTASVVCLLNNFYPREAKVQWKVDNALQSGNSQESVTEQDSKDSTYSLSSTLTLSKADYEKHKVYACEVTHQGLSSPVTKSFNRGEC
B2: CE115HA000 N53Q one-arm antibody (antibody, human IgG1, kappa, L234A L235A, N297A, name in Kabat numbering)
heavy: B1 heavy with R31N, N56Q
chain: B1 chain
light: B1 light
B3: CE115HA000 N54G one-arm antibody (antibody, human IgG1, kappa, L234A L235A, N297A, name in Kabat numbering)
heavy: B1 heavy with R31N, N57G
chain: B1 chain
light: B1 light
B4: CE115HA000 Q50D one-arm antibody (antibody, human IgG1, kappa, L234A L235A, N297A, name in Kabat numbering)
heavy: B1 heavy with R31N, Q50D
chain: B1 chain
light: B1 light
B5: CE115HA000 N54L one-arm antibody (antibody, human IgG1, kappa, L234A L235A, N297A, name in Kabat numbering)
heavy: B1 heavy with R31N, N57L
chain: B1 chain
light: B1 light
B6: CE115HA000 N54Y one-arm antibody (antibody, human IgG1, kappa, L234A L235A, N297A, name in Kabat numbering)
heavy: B1 heavy with R31N, N57Y
chain: B1 chain
light: B1 light
B7: CE115HA000 Q50E one-arm antibody (antibody, human IgG1, kappa, L234A L235A, N297A, name in Kabat numbering)
heavy: B1 heavy with R31N, Q50E
chain: B1 chain
light: B1 light
B8: CE115HA000 Q50S one-arm antibody (antibody, human IgG1, kappa, L234A L235A, N297A, name in Kabat numbering)
heavy: B1 heavy with R31N, Q50S
chain: B1 chain
light: B1 light
B9: CE115HA000 N31Y one-arm antibody (antibody, human IgG1, kappa, L234A L235A, N297A, name in Kabat numbering)
heavy: B1 heavy with R31Y
chain: B1 chain
light: B1 light
B10: CE115HA000 N31S one-arm antibody (antibody, human IgG1, kappa, L234A L235A, N297A, name in Kabat numbering)
heavy: B1 heavy with R31S
chain: B1 chain
light: B1 light
B11: CE115HA000 N53A one-arm antibody (antibody, human IgG1, kappa, L234A L235A, N297A, name in Kabat numbering)
heavy: B1 heavy with R31N, N56A
chain: B1 chain
light: B1 light
B12: CE115HA000 Q50Y one-arm antibody (antibody, human IgG1, kappa, L234A L235A, N297A, name in Kabat numbering)
heavy: B1 heavy with R31N, Q50Y
chain: B1 chain
light: B1 light
B13: CE115HA000 N53H one-arm antibody (antibody, human IgG1, kappa, L234A L235A, N297A, name in Kabat numbering)
heavy: B1 heavy with R31N, N56H
chain: B1 chain
light: B1 light
B14: CE115HA000 N31W one-arm antibody (antibody, human IgG1, kappa, L234A L235A, N297A, name in Kabat numbering)
heavy: B1 heavy with R31W
chain: B1 chain
light: B1 light
B15: CE115HA000 N82aD one-arm antibody (antibody, human IgG1, kappa, L234A L235A, N297A, name in Kabat numbering)
heavy: B1 heavy with R31N, N86D
chain: B1 chain
light: B1 light
B16: CE115HA000 Q50L one-arm antibody (antibody, human IgG1, kappa, L234A L235A, N297A, name in Kabat numbering)
heavy: B1 heavy with R31N, Q50L
chain: B1 chain
light: B1 light
B17: CE115HA000 N53G one-arm antibody (antibody, human IgG1, kappa, L234A L235A, N297A, name in Kabat numbering)
heavy: B1 heavy with R31N, N56G
chain: B1 chain
light: B1 light
B18: CE115HA000 N54A one-arm antibody (antibody, human IgG1, kappa, L234A L235A, N297A, name in Kabat numbering)
heavy: B1 heavy with R31N, N57A
chain: B1 chain
light: B1 light
B19: CE115HA000 N54Q one-arm antibody (antibody, human IgG1, kappa, L234A L235A, N297A, name in Kabat numbering)
heavy: B1 heavy with R31N, N57Q
chain: B1 chain
light: B1 light
B20: CE115HA000 Q50A one-arm antibody (antibody, human IgG1, kappa, L234A L235A, N297A, name in Kabat numbering)
heavy: B1 heavy with R31N, Q50A
chain: B1 chain
light: B1 light
B21: CE115HA000 N53K one-arm antibody (antibody, human IgG1, kappa, L234A L235A, N297A, name in Kabat numbering)
heavy: B1 heavy with R31N, N56K
chain: B1 chain
light: B1 light
B22: CE115HA000 Q50I one-arm antibody (antibody, human IgG1, kappa, L234A L235A, N297A, name in Kabat numbering)
heavy: B1 heavy with R31N, Q50I
chain: B1 chain
light: B1 light
B23: CE115HA000 Q50K one-arm antibody (antibody, human IgG1, kappa, L234A L235A, N297A, name in Kabat numbering)
heavy: B1 heavy with R31N, Q50K
chain: B1 chain
light: B1 light
B24: CE115HA000 N53I one-arm antibody (antibody, human IgG1, kappa, L234A L235A, N297A, name in Kabat numbering)
heavy: B1 heavy with R31N, N56I
chain: B1 chain
light: B1 light
B25: CE115HA000 N54S one-arm antibody (antibody, human IgG1, kappa, L234A L235A, N297A, name in Kabat numbering)
heavy: B1 heavy with R31N, N57S
chain: B1 chain
light: B1 light
B26: CE115HA000 N53Y one-arm antibody (antibody, human IgG1, kappa, L234A L235A, N297A, name in Kabat numbering)
heavy: B1 heavy with R31N, N56Y
chain: B1 chain
light: B1 light
B27: CE115HA000 N53D one-arm antibody (antibody, human IgG1, kappa, L234A L235A, N297A, name in Kabat numbering)
heavy: B1 heavy with R31N, N56D
chain: B1 chain
light: B1 light
B28: CE115HA000 N54D one-arm antibody (antibody, human IgG1, kappa, L234A L235A, N297A, name in Kabat numbering)
heavy: B1 heavy with R31N, N57D
chain: B1 chain
light: B1 light
B29: CE115HA000 N54F one-arm antibody (antibody, human IgG1, kappa, L234A L235A, N297A, name in Kabat numbering)
heavy: B1 heavy with R31N, N57F
chain: B1 chain
light: B1 light
B30: CE115HA000 N53W one-arm antibody (antibody, human IgG1, kappa, L234A L235A, N297A, name in Kabat numbering)
heavy: B1 heavy with R31N, N56W
chain: B1 chain
light: B1 light
B31: CE115HA000 N76S one-arm antibody (antibody, human IgG1, kappa, L234A L235A, N297A, name in Kabat numbering)
heavy: B1 heavy with R31N, N79S
chain: B1 chain
light: B1 light
B32: CE115HA000 N54K one-arm antibody (antibody, human IgG1, kappa, L234A L235A, N297A, name in Kabat numbering)
heavy: B1 heavy with R31N, N57K
chain: B1 chain
light: B1 light
B33: CE115HA000 N53S one-arm antibody (antibody, human IgG1, kappa, L234A L235A, N297A, name in Kabat numbering)
heavy: B1 heavy with R31N, N56S
chain: B1 chain
light: B1 light

target: T1, CD3 epsilon homodimer protein (UniProt P07766 23-126); assay: SPR (Biacore T200), CD3 epsilon homodimer on CM4 chip, one-arm antibody as analyte, 25 C;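 note: homodimer attached to the sensor surface via amine coupling, HBS-EP+ used as running buffer during binding runs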
T1 construct: immobilized on Sensor chip CM4 by amine coupling; also called CD3 (CD3 epsilon)
T1 sequence (P07766 23-126): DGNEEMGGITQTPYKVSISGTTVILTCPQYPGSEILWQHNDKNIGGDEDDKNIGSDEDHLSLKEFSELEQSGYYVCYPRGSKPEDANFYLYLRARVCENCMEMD

Binder	ratio of amounts bound (altered form / CE115HA000)
B1	1.14
B2	1.1
B3	0.98
B4	0.27
B5	0.94
B6	1.09
B7	0.26
B8	0.24
B9	0.64
B10	0.81
B11	0.7
B12	0.25
B13	0.76
B14	0.63
B15	0.73
B16	0.23
B17	0.5

Binder	ratio of amounts bound (altered form / CE115HA000)
B18	0.85
B19	0.84
B20	0.24
B21	0.78
B22	0.4
B23	0.33
B24	0.68
B25	0.84
B26	0.63
B27	0.39
B28	0.62
B29	1.12
B30	0.88
B31	0.92
B32	1.2
B33	0.83
